Molecular target: T1, integrin αVβ3 expressed by human umbilical vein endothelial cells (HUVEC) (human, UniProt P06756 31-1048; P05106 27-788)
T1 construct: whole, on cells; also called integrin alpha V beta 3
Assay: binding to HUVEC; the receptor on HUVEC was identified as αVβ3
Method: Human umbilical vein endothelial cells (HUVEC) (Clonetics Inc., San Diego, Calif.) were grown as indicated by the supplier in endothelial growth media supplemented with 10 ng/ml human recombinant epidermal growth factor, 1 μg/ml hydrocortisone, 50 μg/ml gentamicin, 12 μg/ml bovine brain extract and 2% FBS. Cells were grown at: 37° C./5% CO_2 to 70% confluency before use in the binding assay. […] The plates were washed with PBS and blocked for 30 min with a solution of heat treated (95° C. for 5 min) PBS containing 3% BSA. HUVEC cells were harvested by trypsinization and resuspended in an adhesion buffer (Hanks balanced salt solution pH 7.4 containing 10 mM Hepes, 2.2 mM MgCl_2, 0.2 mM MnCl_2 and 1% BSA). Cells (10^4/100 μl) were added to each well in the presence or absence of the indicated antagonists or controls at varying concentrations. […] Cells were incubated at 37° C./5% CO_2 for 60–90 min and wells were washed until no cells remained in the BSA control. To count remaining cells, 100 μl of endothelial media was added to each well. Cells number was determined by the Promega Cell titer AQ as indicated by the manufacturer.

T1 sequence (P06756 31-1048, chain 1 of 2): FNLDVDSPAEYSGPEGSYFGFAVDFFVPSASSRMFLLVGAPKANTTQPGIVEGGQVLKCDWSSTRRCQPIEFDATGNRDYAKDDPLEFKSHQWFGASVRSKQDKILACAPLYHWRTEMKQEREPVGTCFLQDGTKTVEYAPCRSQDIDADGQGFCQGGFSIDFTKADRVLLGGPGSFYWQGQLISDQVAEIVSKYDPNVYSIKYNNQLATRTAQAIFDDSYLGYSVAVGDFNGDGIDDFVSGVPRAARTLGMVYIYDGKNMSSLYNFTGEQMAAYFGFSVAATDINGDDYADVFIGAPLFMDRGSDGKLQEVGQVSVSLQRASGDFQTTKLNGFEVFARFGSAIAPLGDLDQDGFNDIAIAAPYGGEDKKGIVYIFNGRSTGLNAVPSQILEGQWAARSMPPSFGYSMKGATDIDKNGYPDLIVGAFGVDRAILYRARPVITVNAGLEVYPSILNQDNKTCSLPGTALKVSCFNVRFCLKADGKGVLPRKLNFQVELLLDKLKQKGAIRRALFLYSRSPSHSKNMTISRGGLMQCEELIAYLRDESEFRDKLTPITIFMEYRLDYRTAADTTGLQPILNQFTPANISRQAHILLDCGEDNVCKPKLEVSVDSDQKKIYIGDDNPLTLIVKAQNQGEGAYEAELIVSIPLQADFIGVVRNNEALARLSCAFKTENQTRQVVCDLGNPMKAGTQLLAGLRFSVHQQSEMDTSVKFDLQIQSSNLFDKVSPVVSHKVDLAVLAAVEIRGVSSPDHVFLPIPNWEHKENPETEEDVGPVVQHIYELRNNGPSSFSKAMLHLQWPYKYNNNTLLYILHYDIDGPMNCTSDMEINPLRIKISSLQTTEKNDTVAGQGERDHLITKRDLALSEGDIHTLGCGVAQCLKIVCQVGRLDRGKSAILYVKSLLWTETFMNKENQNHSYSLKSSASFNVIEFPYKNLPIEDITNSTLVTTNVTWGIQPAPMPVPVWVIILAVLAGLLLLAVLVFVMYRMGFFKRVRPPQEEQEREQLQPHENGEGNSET
T1 sequence (P05106 27-788, chain 2 of 2): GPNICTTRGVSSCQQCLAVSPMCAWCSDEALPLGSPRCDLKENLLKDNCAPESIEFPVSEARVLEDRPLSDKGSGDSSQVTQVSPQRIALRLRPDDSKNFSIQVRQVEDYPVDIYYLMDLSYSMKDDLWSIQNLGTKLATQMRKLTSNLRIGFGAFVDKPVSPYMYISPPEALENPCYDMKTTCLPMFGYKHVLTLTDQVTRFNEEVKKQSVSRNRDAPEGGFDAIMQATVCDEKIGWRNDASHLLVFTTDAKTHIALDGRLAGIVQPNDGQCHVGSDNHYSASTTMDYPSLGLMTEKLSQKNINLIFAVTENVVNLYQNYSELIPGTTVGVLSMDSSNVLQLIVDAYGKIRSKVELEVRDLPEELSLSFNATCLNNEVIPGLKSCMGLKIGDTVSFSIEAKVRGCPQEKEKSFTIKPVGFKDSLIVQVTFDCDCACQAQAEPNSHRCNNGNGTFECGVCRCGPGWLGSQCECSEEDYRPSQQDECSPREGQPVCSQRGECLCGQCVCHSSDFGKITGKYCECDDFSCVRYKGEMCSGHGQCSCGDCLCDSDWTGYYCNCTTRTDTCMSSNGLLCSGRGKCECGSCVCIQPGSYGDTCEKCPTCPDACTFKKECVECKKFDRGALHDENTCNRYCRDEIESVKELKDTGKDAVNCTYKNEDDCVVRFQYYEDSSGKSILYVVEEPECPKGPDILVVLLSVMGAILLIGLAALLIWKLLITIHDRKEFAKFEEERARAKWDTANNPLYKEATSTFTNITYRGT

binding result: binds
B1: murine Del-1 (major form) expressed by del-1 transfected yolk sac YS-B cells (ligand)
chain: DICNPNPCENGGICLSGLADDSFSCECPEGFAGPNCSSVVEVASDEEKPTSAGPCIPNPCHNGGTCEISEAYRGDTFIGYVCKCPRGFNGIHCQHNINECEAEPCRNGGICTDLVANYSCECPGEFMGRNCQYKCSGHLGIEGGIISNQQITASSNHRALFGLQKWYPYYARLNKKGLINAWTAAENDRWPWIQINLQRKMRVTGVITQGAKRIGSPEYIKSYKIAYSNDGKTWAMYKVKGTNEEMVFRGNVDNNTPYANSFTPPIKAQYVRLYPQICRRHCTLRMELLGCELSGCSEPLGMKSGHIQDYQITASSVFRTLNMDMFTWEPRKARLDKQGKVNAWTSGHNDQSQWLQVDLLVPTKVTGIITQGAKDFGHVQFVGSYKLAYSNDGEHWMVHQDEKQRKDKVFQGNFDNDTHRKNVIDPPIYARFIRILPWSWYGRITLRSELLGCAEEE
notes: The protein is found in cell lysates, on the cell membrane and in the extracellular matrix of the transfectants (52 kDa band); also called del-1 transfectants; full-length Del-1 protein
